Assay results: patent publication US6469141B1, “D1-like dopamine receptor activity modifying protein” (Medical College of Georgia Research Institute Inc., priority 1998, dated 2002)

Tests used:
[1] = biological target: T1, full-length D1 DA receptors (Homo sapiens, UniProt P21728); assay: S-agarose pull-down assay with D1 HEK293 cell lysates; type: binding; conditions: detergent solubilized D1 HEK293 lysates
T1 construct: expressed in transfected cells; host or cells: D1 HEK293 cell lysate (receptor); BL21(DE3) E. coli (S-Calcyon)
Excerpt: (§1) For pull-down assays, a 550 bp Nco I-Bgl II fragment from pACT-Calcyon was subcloned into pET30a (Novagen, Madison, Wis.) to produce the S-Calcyon fusion protein containing residues 93-217 of the predicted Calcyon protein as well as an N-terminal tag composed of the 15 residue S peptide of ribonuclease S (Richards, F. M., et al., The Enzymes. ed.: Boyer, P. D., Academic Press, N.Y., pp. 647-806 (1971)). The S-β-galactosidase fusion protein was composed of bacterial β-galactosidase protein tagged at its N-terminus with the S peptide. Fusion proteins were induced in BL2I(DE3) E. coli with IPTG, and coupled to S-agarose resin (Novagen, Madison, Wis.) by incubating soluble fractions of bacterial lysates with resin for 1 h at RT Following incubation, unbound proteins were eliminated by washing the resin three times in 50 volumes of 25 mM HEPES (pH 7.4), 50 mM NaCl. […]
A human embryonic kidney (HEK) 293 cell line, designated D1 HEK293, that stably expresses hD1 receptors was used to test the ability of S-Calcyon to interact with full-length D1 DA receptors. […] Proteins retained by the S-tagged target polypeptides were analyzed by immunoblotting with D1 receptor antibodies as described above. […]

[2] = biological target: T2, GSTD1 (C-terminal 81 residues of hD1 receptor) (Homo sapiens, UniProt P21728); assay: S-agarose pull-down assay with GSTD1 fusion protein; type: binding; conditions: immunoblot with D1 receptor antibodies
T2 construct: C-terminal 81 amino acids of the hD1 receptor (residues 365-446); made in house; host or cells: S-Calcyon: BL21(DE3) E. coli
T2 sequence (P21728 365-446): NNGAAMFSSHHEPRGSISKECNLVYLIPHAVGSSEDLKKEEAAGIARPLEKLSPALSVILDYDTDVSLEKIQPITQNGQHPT
Excerpt: as §1, with “NaCl. Interaction assays were performed with GSTD1 purified as described (Bergson, C., et al., J. Neurosci. 15:7821-36 (1995)) or solubilized lysates of D1 HEK293 cells in 25 mM HEPES (pH 7.4), 50 mM NaCl, 10% glycerol, 1% bovine serum albumin containing 0.5% NP-40. Peptidel 421-435 ([…]) (SEQ ID No. 3) and Peptide2 ([…]) (SEQ ID No. 4) were synthesized using an Applied Biosystems 430A Peptide Synthesizer using the FastMoc procedures and reagents supplied by Perkin-Elmer, Applied Biosystems division.” for “NaCl.”

[3] = binding of 3H-labeled phospholipid vesicles to resin-bound S-Calcyon; conditions: 25 μl S-agarose resin, one hour, room temperature
Experimental: FIG. 4 is a graph showing that calcyon's cytoplasmic domain binds PIP2. S-Calcyon bound to 25 μl of S-agarose resin, or 25 μl of S-agarose resin only was incubated for one hour at room temperature with phospholipid vesicles containing phosphotidylcholine (PC), phosphotidylethanolamine (PE), or PC, PE, and PIP2. Both types of vesicles were radioactively labeled with equivalent amounts of ^3H-phosphatidylcholine. Following incubation, resins were washed three times with ten volumes of buffer (20 mM hepes, pH 7.4), and amounts of bound phospholipid determined by liquid scintillation counting. Results are reported as percent of input radiolabel precipitated. Bars represent average value obtained in three independent assays with standard error of the mean.
Tests were conducted to determine whether Calcyon can bind PIP2 using the S-Calcyon fusion protein. S-Calcyon contains the predicted cytoplasmic domain of Calcyon (residues 93-217) preceded by an ‘S’ tag (for coupling to S-agarose resin). […] Following incubation, resin was washed three times with ten volumes of buffer (20 mM Hepes, pH 7.4), and amounts of bound phospholipid were determined by liquid scintillation counting. […] Results are reported as percent of input radiolabel precipitated, bars represent the standard error of the mean of each value determined in triplicate. […]

T1 sequence (P21728 whole entry): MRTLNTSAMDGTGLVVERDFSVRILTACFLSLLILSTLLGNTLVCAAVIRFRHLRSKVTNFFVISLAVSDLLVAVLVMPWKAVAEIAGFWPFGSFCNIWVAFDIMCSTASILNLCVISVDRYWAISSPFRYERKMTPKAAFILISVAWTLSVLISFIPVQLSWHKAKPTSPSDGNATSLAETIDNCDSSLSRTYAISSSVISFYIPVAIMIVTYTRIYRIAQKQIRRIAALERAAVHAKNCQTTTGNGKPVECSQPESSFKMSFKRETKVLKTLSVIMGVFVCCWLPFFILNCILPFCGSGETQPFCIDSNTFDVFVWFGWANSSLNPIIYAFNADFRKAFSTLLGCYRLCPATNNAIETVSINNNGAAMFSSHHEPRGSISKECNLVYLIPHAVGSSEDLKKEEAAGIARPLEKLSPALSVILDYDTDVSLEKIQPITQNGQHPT

B1: S-Calcyon: fusion protein containing residues 93-217 of Calcyon with N-terminal 15 residue S peptide tag (protein)
chain: KETAAAKFERQHMDSMALLGCVLIMYKAIWYDQFTCPDGFLLRHKICTPLTLEMYYTEMDPERHRSILAAIGAYPLSRKHGTETPAAWGDGYRAAKEERKGPTQAGAAAAATEPPGKPSAKAEKEAARKAAGSAAPPPAQ
With B1 the “pull-down of full-length D1 receptor by resin-immobilized S-tagged protein” value [1] was “Bands of similar size were also present”, the “pull-down of GSTD1 by resin-immobilized S-tagged protein” value [2] was “A D1 antibody reactive band of similar size was present” and the “precipitation of PIP2 containing vesicles vs vesicles of PC and PE only” value [3] was “more than five times more effectively”.
